Data from the RNAGym collection of RNA variant scans (doi:10.7554/elife.80360).

B1: CPEB3 Ribozyme (parent)
chain: GGGGGCCACAGCAGAAGCGUUCACGUCGCGGCCCCUGUCAGAUUCUGGUGAAUCUGCGAAUUCUGCUGU

Variants of: B1
Assay: self-cleavage, relative activity (ratio to wild type); higher = more cleavage; co-transcriptional

| Variant | self-cleavage |
| --- | --- |
| G28A A40G | 0.214 |
| G28A A40U | 0.167 |
| G28A A42C | 0.177 |
| G28A A42G | 0.131 |
| G28A A42U | 0.137 |
| G28A A51C | 0.234 |
| G28A A51U | 0.183 |
| G28A A52G | 0.234 |
| G28A A59U | 0.198 |
| G28A A60C | 0.197 |
| G28A A60G | 0.168 |
| G28A A60U | 0.199 |
| G28A C29A | 0.143 |
| G28A C29G | 0.117 |
| G28A C29U | 0.177 |
| G28A C32A | 0.19 |
| G28A C32G | 0.139 |
| G28A C32U | 0.184 |
| G28A C33A | 0.18 |
| G28A C33G | 0.195 |
| G28A C33U | 0.22 |
| G28A C34A | 0.218 |
| G28A C35A | 0.17 |
| G28A C35U | 0.203 |

| Variant | self-cleavage |
| --- | --- |
| G28A C39A | 0.198 |
| G28A C39U | 0.17 |
| G28A C45A | 0.184 |
| G28A C45G | 0.196 |
| G28A C54G | 0.177 |
| G28A C54U | 0.194 |
| G28A C57A | 0.136 |
| G28A C57G | 0.17 |
| G28A C57U | 0.137 |
| G28A C63A | 0.182 |
| G28A C63G | 0.178 |
| G28A C66G | 0.196 |
| G28A G30C | 0.167 |
| G28A G31C | 0.208 |
| G28A G37A | 0.157 |
| G28A G37C | 0.193 |
| G28A G37U | 0.186 |
| G28A G41C | 0.177 |
| G28A G47C | 0.212 |
| G28A G47U | 0.262 |
| G28A G50A | 0.195 |
| G28A G50U | 0.159 |
| G28A G56A | 0.164 |
| G28A G56C | 0.235 |

| Variant | self-cleavage |
| --- | --- |
| G28A G56U | 0.167 |
| G28A G58A | 0.189 |
| G28A G58C | 0.231 |
| G28A G58U | 0.2 |
| G28A G65C | 0.172 |
| G28A G68C | 0.268 |
| G28A G68U | 0.195 |
| G28A U36C | 0.128 |
| G28A U36G | 0.133 |
| G28A U38C | 0.196 |
| G28A U38G | 0.147 |
| G28A U43A | 0.156 |
| G28A U43C | 0.219 |
| G28A U43G | 0.0959 |
| G28A U44A | 0.195 |
| G28A U44C | 0.176 |
| G28A U44G | 0.136 |
| G28A U46A | 0.184 |
| G28A U46C | 0.192 |
| G28A U46G | 0.146 |
| G28A U49C | 0.238 |
| G28A U49G | 0.22 |
| G28A U53C | 0.154 |
| G28A U53G | 0.203 |

| Variant | self-cleavage |
| --- | --- |
| G28A U55C | 0.214 |
| G28A U61A | 0.193 |
| G28A U61C | 0.137 |
| G28A U62A | 0.203 |
| G28A U62C | 0.218 |
| G28A U64A | 0.245 |
| G28A U67A | 0.202 |
| G28A U67C | 0.307 |
| G28A U67G | 0.232 |
| G28A U69A | 0.342 |
| G28A U69C | 0.412 |
| G28A U69G | 0.357 |
| G28C A40C | 0.218 |
| G28C A40G | 0.211 |
| G28C A40U | 0.215 |
| G28C A42U | 0.25 |
| G28C A51C | 0.119 |
| G28C A51G | 0.247 |
| G28C A51U | 0.165 |
| G28C A52U | 0.197 |
| G28C A59C | 0.16 |
| G28C A59G | 0.132 |
| G28C A59U | 0.189 |
| G28C A60G | 0.168 |

| Variant | self-cleavage |
| --- | --- |
| G28C A60U | 0.19 |
| G28C C29A | 0.144 |
| G28C C29G | 0.153 |
| G28C C29U | 0.137 |
| G28C C32A | 0.181 |
| G28C C32G | 0.168 |
| G28C C32U | 0.23 |
| G28C C33A | 0.115 |
| G28C C33U | 0.165 |
| G28C C34G | 0.245 |
| G28C C34U | 0.136 |
| G28C C35A | 0.176 |
| G28C C35U | 0.178 |
| G28C C39G | 0.198 |
| G28C C45G | 0.208 |
| G28C C54G | 0.155 |
| G28C C54U | 0.218 |
| G28C C57A | 0.207 |
| G28C C57G | 0.191 |
| G28C C57U | 0.23 |
| G28C C63U | 0.192 |
| G28C C66A | 0.163 |
| G28C C66G | 0.141 |
| G28C C66U | 0.211 |

| Variant | self-cleavage |
| --- | --- |
| G28C G30A | 0.22 |
| G28C G30C | 0.143 |
| G28C G31A | 0.139 |
| G28C G31C | 0.172 |
| G28C G31U | 0.21 |
| G28C G37A | 0.117 |
| G28C G37C | 0.186 |
| G28C G37U | 0.129 |
| G28C G41A | 0.201 |
| G28C G41C | 0.178 |
| G28C G41U | 0.152 |
| G28C G47A | 0.187 |
| G28C G47C | 0.258 |
| G28C G47U | 0.167 |
| G28C G48A | 0.195 |
| G28C G48U | 0.202 |
| G28C G56U | 0.17 |
| G28C G58C | 0.158 |
| G28C G65A | 0.161 |
| G28C G65C | 0.19 |
| G28C G68A | 0.164 |
| G28C G68U | 0.221 |
| G28C U36A | 0.162 |
| G28C U36C | 0.147 |

| Variant | self-cleavage |
| --- | --- |
| G28C U36G | 0.189 |
| G28C U38C | 0.199 |
| G28C U43A | 0.109 |
| G28C U43C | 0.141 |
| G28C U43G | 0.255 |
| G28C U44A | 0.157 |
| G28C U44C | 0.223 |
| G28C U49C | 0.145 |
| G28C U53A | 0.156 |
| G28C U53C | 0.145 |
| G28C U53G | 0.196 |
| G28C U55C | 0.162 |
| G28C U55G | 0.117 |
| G28C U61C | 0.134 |
| G28C U62A | 0.194 |
| G28C U62C | 0.136 |
| G28C U64A | 0.222 |
| G28C U64G | 0.116 |
| G28C U67C | 0.168 |
| G28C U67G | 0.295 |
| G28C U69A | 0.18 |
| G28U A40C | 0.225 |
| G28U A40G | 0.232 |
